According to the supplement of paper PMC9732359:
± gives the uncertainty stated by the source.

Test: protein stability index of a GFP-peptide fusion (yeast GPS) (PSI 1-4); higher = more stable; sorted into four equal gates, so the index is relative within each strain
Conditions: doa10∆
In short: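 Plasmids isolated from each sorting gate were PCR-amplified and Illumina-sequenced, and barcodes assigned the reads to strains. The gates, four of equal size, were set by GFP/Cherry fluorescence ratio on mid-log cultures in leucine-free medium. These cultures were yeast carrying a pooled library of tiled 17-residue yeast protein peptides fused downstream of GFP on a plasmid that also expresses Cherry. The protein stability index is the sum of every gate's read frequency times its gate number.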

Sequence | protein stability index
LRVEHIKHSKCRQEFLE [RPL21A] | 1.59 ± 0.21
LSATQFTQPALTLMEKA [FAS1] | 2.37 ± 0.073
LSCQYDNTVRTSANGIV [RPO31] | 1.32 ± 0.19
LSDRANKNQDAFEAELS [ARP9] | 3.28 ± 0.072
LSDRITGNFIIPSGNVW [PRP8] | 2.76 ± 0.1
LSGKFSTIPTRENGKGG [ROX3] | 3.28 ± 0.23
LSGNSVEDVSQNAADLQ [RPL9A] | 3.31 ± 0.15
LSHGSLEHVLLVPTASF [FAS1] | 1.24 ± 0.039
LSIKNSFIINFISNLPN [NUT1] | 1.92 ± 0.07
LSIQYMIQKVMEYLKSS [RPN5] | 1.38 ± 0.082
LSISVAAEPMDSKMIQD [SNU114] | 2.73 ± 0.061
LSKVAALSGNEGDASPF [RPB2] | 1.91 ± 0.046
LSKVFSDVLFEFTKINT [YJL039C/NUP192] | 2.87 ± 0.11
LSKVSLLTPDIGAVYSG [PRE8] | 1.68 ± 0.055
LSLHTGFIENCNGSALV [MTR3] | 2.65 ± 0.066
LSLTLNTHYHADYRLIL [SNF2] | 2.83 ± 0.077
LSNIEAQFLRSVVHPGE [RPO21] | 2.77 ± 0.1
LSNIPLLLITHHSWSQS [ARP9] | 2.25 ± 0.075
LSPPEFLFHAISGREGL [RPO31] | 2.17 ± 0.047
LSQVYPTLVRSVISGNL [CSN12] | 2.54 ± 0.072
LSRNGKPVMEVTSSFFY [FAS1] | 3.04 ± 0.077
LSSLILKIFQEQSLEVF [SRB8] | 2.5 ± 0.087
LSTRAGGLGLNLQTADT [SNF2] | 2.75 ± 0.084
LSYISALGMMTRISSQF [RET1] | 1.41 ± 0.063
LTATPNSINKTTVPFKE [POP1] | 1.75 ± 0.061

Sequence | protein stability index
LTGSPNNPLVQKKNFLF [ARP7] | 2.9 ± 0.092
LTKAQKYLDQVLDHQRA [RPL17B] | 3 ± 0.096
LTKAQKYLEQVLDHQRA [RPL17A] | 2.69 ± 0.056
LTLIFYDVLHDVFTINP [YML103C/NUP188] | 1.7 ± 0.071
LTLMEKAAFEDLKSKGL [FAS1] | 3.03 ± 0.078
LTNMMSPMGNAYSMGAQ [PGD1] | 2.34 ± 0.062
LTNQLYKNHELLKLERK [SNF2] | 3.15 ± 0.063
LTRQPTEGRSRDGGLRL [RET1] | 2.07 ± 0.07
LTSNLSNYSRTMTISHL [YJL039C/NUP192] | 2.56 ± 0.074
LTSTKVKQLENVSSNIV [RPS20] | 1.75 ± 0.075
LTVFYAIKKFKTEKDGV [SSN3] | 2.17 ± 0.12
LVAKFLYPIFLLDDKKL [YJR042W/NUP85] | 1.49 ± 0.034
LVGSWKKDRATGDADEP [RPO21] | 3.14 ± 0.22
LVSNPHEIYGSMPLEQL [SRB4] | 3.01 ± 0.12
LVTAGVAAAGITASTLL [CYT1] | 1.57 ± 0.058
LWGPHGLNSDAEEVRNF [ECM29] | 3.77 ± 0.29
LWNLNAYRTDVIQALGG [PRP8] | 2.17 ± 0.055
LYAITFRKGLGNPLLYD [QCR2] | 1.25 ± 0.17
LYASDYASYFPYLLETY [RPN7] | 1.62 ± 0.077
LYEKLKQEIMMSDLFTF [ISW2] | 2.69 ± 0.099
LYFYRDPEEVEQQVAEE [RPS0A] | 3.31 ± 0.087
LYHHTTKTILSGTDGST [SRP72] | 3.04 ± 0.068
LYQSLTPQQLQMIQQRH [SNF5] | 1.77 ± 0.037
LYVPHSENRFPGWDFET [RPL5] | 2.44 ± 0.12
MAAALPNPTPSMINSVS [PGD1] | 1.77 ± 0.05

Sequence | protein stability index
MAATATDKIGRSVPAPG [FAS2] | 2.82 ± 0.081
MAGVKAYELRTKSKEQL [RPL35A] | 3 ± 0.11
MAKVEVNLAAIPLGKNV [RIP1] | 3.33 ± 0.3
MAPNTSRKQKIAKTFTV [RPL22A] | 2.15 ± 0.17
MAQENSMERKVQGAAPW [MCD1] | 3.35 ± 0.26
MAQTATQQQPGAPGANA [SRP54] | 3.31 ± 0.065
MARRPARCYRYQKNKPY [RPL10] | 2.17 ± 0.092
MARTKQTARKSTGGKAP [HHT1] | 3.31 ± 0.12
MASYMLNSFAFELCSLG [YJR042W/NUP85] | 1.29 ± 0.17
MATIASEYSSEASNTPI [PRE7] | 2.53 ± 0.094
MCVSKGNASLKYIALQV [YCG1] | 2.54 ± 0.099
MDETQTRAKIGGLNDPR [RPO21] | 2.8 ± 0.1
MDKKILLNINGSRKVAG [SMX2] | 1.57 ± 0.06
MDMNEIEDKENSESTTQ [RPT5] | 3.04 ± 0.15
MDRDSESEEAETKDIRK [SRB4] | 3.21 ± 0.17
MDSKGKITIGIQRTTES [RGR1] | 3.44 ± 0.075
MEERDGAKFENIVHNFK [AAR2] | 3.09 ± 0.1
MEKDKLKNLLRSNFRVN [SNU114] | 1.99 ± 0.087
METRINILLRERDSYKL [YIL149C/MLP2] | 1.96 ± 0.27
MFNDLNSMDISMFSGLD [MED2] | 3.18 ± 0.06
MFSPLVDSGSNDAMAGG [RPO21] | 3.3 ± 0.16
MGMDLYKTSKAAQDVWN [FAS1] | 3.08 ± 0.13
MIAKEVKTSPDAKKCIA [FAS1] | 1.71 ± 0.15
MIATNVAARGLDIPNVS [PRP28] | 2.58 ± 0.17
MIIFLKNYDATDKPFSS [CSI1] | 2.63 ± 0.059

Sequence | protein stability index
MIYDDAHEISQGVYGAV [BRR2] | 3 ± 0.068
MKDRLVEWNDQVEKLGK [RPN9] | 3.4 ± 0.13
MKIQAGQLGLDDNDVPG [YLR018C/POM34] | 3.22 ± 0.19
MKNKAETTTEEDSENPS [ITC1] | 3.31 ± 0.19
MKQPYVFVKKHHELIKV [SSN2] | 1.33 ± 0.072
MLETAGFSMNNPYNIVP [SMC3] | 3.17 ± 0.11
MLGIRSSVKTCFKPMSL [RIP1] | 2.9 ± 0.074
MLGRAGRPRYDTFGEGI [BRR2] | 3.25 ± 0.12
MLKYRRLFIGDQNNKKM [SNF2] | 2.62 ± 0.097
MLMPKQERNKIHQYLFQ [RPS10B] | 2.76 ± 0.29
MLNLIDDVKNILNAKYT [RPN6] | 2.85 ± 0.18
MMQDPQMQQMAKQFGMG [SRP54] | 3.15 ± 0.039
MMTRRVVMAMYNPKMID [RET1] | 3.46 ± 0.15
MMVSYPKIDEDDTWYNL [AAR2] | 3.29 ± 0.063
MNGNSTNNEQLQQELAT [NUT2] | 3.2 ± 0.06
MNRRKIAMPKRRMAFKP [YLR335W/NUP2] | 2.71 ± 0.076
MNTTLGSIGSRKYSFNY [YAR002W/NUP60] | 1.75 ± 0.06
MNTVPFTSAPIEVTIGI [AAR2] | 1.49 ± 0.092
MPFWKFFMKNFPFVLKV [SRB8] | 2.8 ± 0.23
MPGVSVRDVAAQDFINA [RPS19A] | 1.81 ± 0.12
MPKKRASNGRNKKGRGH [RPS26A] | 3.3 ± 0.17
MSANGFAADGDALVKRF [PRE7] | 3.35 ± 0.26
MSAVPSVQTFGKKKSAT [RPS16A] | 1.45 ± 0.1
MSDAVTIRTRKVISNPL [RPS24A] | 2.78 ± 0.23
MSDLFTFDWFIKTRTVH [ISW2] | 2.88 ± 0.099
